Patent US20110274696A1 (Amgen, published 2011)
Values joined by “and” are separate entries in the source; they are usually repeats but may differ in a detail not shown here. Equal values may be shown once. Where no end group is shown, it is not given here.

Legend:
[1] = target: T1, biotinylated CCR2 loop 3 peptide (human, also: biotinylated, position not given here); assay: peptide ELISA
T1 construct: Synthetic peptide (AnaSpec) captured on a NeutrAvidin plate; also called third loop
T1 peptide: QEFFGLSNCESTSQLDQ
Procedure: (§1) In addition, epitope binding to the first and/or second loop of CCR2 was also assessed using a peptide ELISA. A Reacti-Bind NEUTRAVIDIN™ Coated, High Binding Capacity ELISA plate (Pierce; Rockford, Ill.) was washed 3× with PBS/0.05% Tween20 and then coated with 100 ul/well of 6 ug/ml biotinylated CCR2 loop 2 (SEQ ID NO:129) or loop 3 (SEQ ID NO:130) peptide (AnaSpec; San Jose, Calif.). The plate was incubated for 1 hour and then washed 3×. The CCR2 antagonist antibody 4.40.3 A68G S230P or other primary antibody, diluted in PBS/0.1% BSA/0.05% Tween20, was then added to the plate in serial dilution and incubated for 1 hour, as were other controls. The plate was washed 3× and 100 ul/well HRP-Mouse anti-Human IgG4 secondary antibody (Zymed; So. San Francisco, Calif.) was added to all the wells at 1:5000 dilution and incubated for 1 hour. The plate was washed 3× and TMB substrate was added to all the wells and incubated for ˜30 minutes. The color reaction was stopped with 2M H₂SO₄ and the absorbance reading was measured on a plate reader at […] (FIG. 8).

[2] = target: T2, biotinylated CCR2 loop 2 peptide (human, biotinylated (position not given)); assay: peptide ELISA, biotinylated peptide on NeutrAvidin plate
T2 construct: Synthetic peptide (AnaSpec) captured on a NeutrAvidin plate; also called second extracellular loop peptide
T2 peptide: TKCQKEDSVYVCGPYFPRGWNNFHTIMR
Procedure: as §1

human CCR2 [3] = target: T3, human CCR2 (human, UniProt P41597-2 1-360); assay: cell-based or functional assay
T3 sequence: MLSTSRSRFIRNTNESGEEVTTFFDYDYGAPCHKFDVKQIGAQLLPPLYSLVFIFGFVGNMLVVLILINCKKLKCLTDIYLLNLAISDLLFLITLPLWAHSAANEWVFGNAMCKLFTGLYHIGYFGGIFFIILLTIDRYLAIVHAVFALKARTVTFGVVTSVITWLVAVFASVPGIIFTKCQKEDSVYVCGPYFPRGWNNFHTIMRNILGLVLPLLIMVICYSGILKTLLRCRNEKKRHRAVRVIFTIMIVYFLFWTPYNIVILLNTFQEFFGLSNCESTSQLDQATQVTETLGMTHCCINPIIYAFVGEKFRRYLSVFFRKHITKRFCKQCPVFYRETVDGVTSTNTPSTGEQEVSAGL

human CCR2 [4] = target: T3, human CCR2; assay: cell-based or functional assay; remark: listed apart in the source
[5] = target: T2, biotinylated CCR2 loop 2 peptide; assay: capture ELISA, biotinylated CCR2 loop 2 peptide on a NeutrAvidin plate, HRP anti-human IgG4, absorbance at 450 nm
Procedure: as §1

[6] = target: T4, RMMR chimeric receptor (N-terminus and 3rd loop of CCR1; 1st and 2nd loops of CCR2), FLAG-tagged; assay: FACS saturation binding on RMMR chimera transfected 300-19 cells
T4 construct: also called 1st and 2nd loops of CCR2 (RMMR)
Procedure: (§2) Fifteen minutes later, a secondary detection antibody, R-Phycoerythrin conjugated Affini-pure F(ab′) fragment Donkey anti-human IgG H+L (Jackson 709-116-149), was added. Tubes were gently shaken for 3 hours at room temperature. After 2 washes in buffer, cells were resuspended in 500 ul of buffer and assessed on a FACS CALIBUR™. A total of 10,000 events per tube were assessed. The mean channel fluorescent intensity was assessed for each concentration of antibody as an indicator for the magnitude of staining.
(§3) Binding of antibodies to the CCR2/CCR1 chimeric receptors was assessed using FACS analysis. All receptors were tagged at the N-terminus with FLAG and also stained with the anti-FLAG antibody M1 such that receptor expression could be confirmed. FIGS. 6A & B illustrate the FACS staining of FLAG on the N-terminus with M1 antibody (FIG. 6A) as compared to the staining of 4.40 (FIG. 6B). FIG. 6C illustrates a saturation binding curve of the 4.40 A68G S230P antibody on RMMR chimera transfected 300-19 cells.

[7] = target: T4, RMMR chimeric receptor (N-terminus and …); assay: FACS saturation binding on 300-19 cells expressing the chimera with the first and second extracellular loops of CCR2 (FIG. 6C)
Procedure: as §2, §3

human CCR2 [8] = target: T3, human CCR2; assay: FACS saturation binding, 3 hour assay, 300-19 cells expressing human CCR2; full-length human CCR2 on transfected 300-19 cells, not the chimera; KD in ug/mL
Procedure: as §2, with “Briefly, using a buffer of Dulbecco's Phosphate Buffered Saline containing 2% heat inactivated Fetal Bovine Serum, 0.002% Sodium Azide and 0.005 mg/ml Cytochalasin-B (Sigma 6762), 1 million cells in a volume of 100 ul were stained with the test antibody. Fifteen” for “Fifteen”

[9] = target: T1, biotinylated CCR2 loop 3 peptide; assay: capture ELISA, biotinylated CCR2 loop 3 peptide on a NeutrAvidin plate, HRP anti-human IgG4, absorbance at 450 nm
Procedure: as §1

human CCR2 [10] = target: T3, human CCR2; assay: FACS saturation binding (3 hour assay) on CCR2 transfected 300-19 cells, PE anti-human IgG detection
Procedure: as §2, with “Briefly, using a buffer of Dulbecco's Phosphate Buffered Saline containing 2% heat inactivated Fetal Bovine Serum, 0.002% Sodium Azide and 0.005 mg/ml Cytochalasin-B (Sigma 6762), 1 million cells in a volume of 100 ul were stained with the test antibody. Fifteen” for “Fifteen”

cynomolgus monkey CCR2 = cynomolgus monkey CCR2 (cynomolgus monkey); assay: cell-based or functional assay
human CCR2 [11] = target: T3, human CCR2; assay: cell-based or functional assay; remark: listed apart in the source
CCR5 = target: T5, CCR5 (human, UniProt P51681 1-352); assay: FACS, AF-488 conjugated antibody on 300-19 cells expressing recombinant CCR5
T5 construct: also called recombinant CCR5; human CCR5
Procedure: The selectivity of the 4.40 A68G S230P antibody for human CCR2 was confirmed by the absence of binding to a closely related chemokine receptor, CCR5, as shown in FIG. 9 and by the lack of inhibition of chemotaxis induced by the CCR5/CCR1 ligand MIP-1a (FIG. 3). […] For these studies, 300.19 cells engineered to express CCR5 were incubated with either the CCR2 selective antibody, 4.40 A68G S230P, or the CCR5-selective antibody for 30 minutes. Cells were then washed in FACS buffer (0.02% sodium azide, 2% heat inactivated fetal bovine serum in PBS) and analyzed for cell surface expression using a flow cytometer using standard methods.

T5 sequence (P51681 whole entry): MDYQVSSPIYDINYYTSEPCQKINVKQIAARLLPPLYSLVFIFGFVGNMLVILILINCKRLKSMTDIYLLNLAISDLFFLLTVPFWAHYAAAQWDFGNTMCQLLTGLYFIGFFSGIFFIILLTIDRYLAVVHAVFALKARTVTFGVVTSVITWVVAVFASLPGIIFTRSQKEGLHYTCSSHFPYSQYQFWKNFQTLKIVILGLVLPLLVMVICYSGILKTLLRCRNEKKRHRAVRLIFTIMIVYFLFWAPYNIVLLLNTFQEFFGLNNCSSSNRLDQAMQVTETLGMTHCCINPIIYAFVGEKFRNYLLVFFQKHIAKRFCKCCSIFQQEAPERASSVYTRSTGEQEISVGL

B1: anti-CCR2 monoclonal antibody 4.40 (antibody, V domains shown)
VH: QVQLVESGGGVVQPGRSLRLSCAASGLTFSSYGMHWVRQAPGKGLEWVAVILYDGKNKYYADSVKGRFTISRDNSKNTLYLQMNSLRAEDTAVYYCARDQAYWTYFDAFDIWGQGTMVTVSS
VL: EIVLTQSPDFQSVTPKEKVTITCRASQSIGSSLHWYQQKPDQSPKLLIKYASQSFSGVPSRFSGSGSATDFTLTINSLEAEDAATYYCHQSSSLPLTFGGGTKVEIKR
notes: Hybridoma clone from IgG4 XenoMouse mice; Variable domains were also cloned into IgG1, IgG2 and IgG4 formats; also called 4.40.2; 4.40.3
B1 was tested, and the binding result [1] was “no binding”, the binding result [2] was “binds” and the “Chemotaxis IC50” value (human CCR2 [3]) was 0.13 µg/mL. The “Inhibition of MCP-1-induced THP-1 Chemotaxis, IC50” value (human CCR2 [4]) was 0.137 µg/mL.

B2: anti-CCR2 monoclonal antibody 4.9 (antibody, human IgG4, kappa, V domains shown)
VH: QVQLVESGGGVVQPGRSLRLSCAASGFTFSSYGMHWVRQAPGKGLEWVAVQTYDGRNKYYADSVKGRFTISRDNSKKTLYLQMNRLRAEDTAVYYCARDQAYWKYFDAFDIWGQGTMVTVSS
VL: DIQMTQSPSSLSTSVGDRVTITCRASQSISSYLNWYQQKPGKAPKLLIYAASSLQSGVPSRFSGSGSGTDFTLTISSLQPEDFATYYCQQSYNSPCSFGQGTKLEIKR
notes: Hybridoma clone from IgG4 XenoMouse mice; also called 4.9.2; 4.9.3
In the case of B2, the binding result [1] is reported as “no binding”, the binding result [2] is reported as “binds” and the “Chemotaxis IC50” value (human CCR2 [3]) is reported as 0.198 µg/mL. The “Inhibition of MCP-1-induced THP-1 Chemotaxis, IC50” value (human CCR2 [4]) was 0.198 µg/mL.

B3: anti-CCR2 antibody 4.40 A68G S230P (antibody, human IgG4 S228P, kappa, V domains shown)
VH: QVQLVESGGGVVQPGRSLRLSCAASGLTFSSYGMHWVRQAPGKGLEWVAVILYDGKNKYYADSVKGRFTISRDNSKNTLYLQMNSLRAEDTAVYYCARDQAYWTYFDAFDIWGQGTMVTVSS
VL: EIVLTQSPDFQSVTPKEKVTITCRASQSIGSSLHWYQQKPDQSPKLLIKYASQSFSGVPSRFSGSGSGTDFTLTINSLEAEDAATYYCHQSSSLPLTFGGGTKVEIKR
notes: Recombinant human IgG4 with the hinge mutation S230P (heavy chain) and the germline reversion A68G (light chain) of 4.40; also called 4.40.3 A68G S230P; 4.40.2 A68G S230P
B3 was tested, and the binding result [5] was “binds”, the “EC50 (read off the curve)” value [6] was about 0.05 µg/mL and the Kd [6] was 0.0226 µg/mL. The Kd [7] was 0.023 µg/mL and 0.16 nM, the Kd (human CCR2 [8]) was 0.085 µg/mL and the binding result [9] was “no binding (tested: about 6 ug/ml)”. For the same binder, the “EC50 (read off the curve)” value (human CCR2 [10]) was about 0.08 µg/mL, the Kd (human CCR2 [10]) was 0.0849 µg/mL and the “inhibition of MCP-1 induced whole blood actin polymerization in the cynomolgus monkey, IC50” value (cynomolgus monkey CCR2) was 0.49 µg/mL. The “inhibition of MCP-1 induced actin polymerization in monocytes, human whole blood, IC50” value (human CCR2 [11]) was 0.168 µg/mL, the “inhibition of MCP-1 induced pERK phosphorylation in human whole blood, IC50” value (human CCR2 [11]) was 0.44 µg/mL and 2.9 nM and the “inhibition of chemotaxis of THP-1 monocytes in response to MCP-1, IC50” value (human CCR2 [11]) was 0.148 µg/mL. For the same binder, the “inhibition of collagen IAI mRNA synthesis in LI90 cells induced by MCP-1, IC50” value (human CCR2 [11]) was 0.89 µg/mL and 6.2 nM and the binding result (CCR5) was “no binding”.

B4: anti-CCR2 monoclonal antibody 4.39.3 (antibody, human IgG4, kappa, V domains shown)
VH: QVQLVQSGAEVKKPGASVKVSCKASGYTFTSYYIHWVRQAPGQGLEWMGMINPSGGPTSYAQKFQGRVTMTRDTSTSTVYMDLSSLRSEDTAVFYCARERWYKWNFDAFDIWGQGTMVTVSS
VL: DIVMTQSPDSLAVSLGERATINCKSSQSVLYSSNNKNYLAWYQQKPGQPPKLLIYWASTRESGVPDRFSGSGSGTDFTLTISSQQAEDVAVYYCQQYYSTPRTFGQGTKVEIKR
B4 was tested, and the “Chemotaxis IC50” value (human CCR2 [3]) was 0.139 µg/mL and the “Inhibition of MCP-1-induced THP-1 Chemotaxis, IC50” value (human CCR2 [4]) was 0.139 µg/mL.
